Legend:
[1] = molecular target: RVFV Gn (crystallization construct) (Rift Valley fever virus, UniProt P21401); assay: SEC; settings: both partners purified
[2] = molecular target: SFTSV Gn glycoprotein (residues 20-341) (Severe fever with thrombocytopenia …, UniProt R4V2Q5); assay: ELISA; settings: both partners purified
Chain of SFTSV Gn glycoprotein (residues 20-341) (R4V2Q5 whole entry, looked up, the tested form may be a part): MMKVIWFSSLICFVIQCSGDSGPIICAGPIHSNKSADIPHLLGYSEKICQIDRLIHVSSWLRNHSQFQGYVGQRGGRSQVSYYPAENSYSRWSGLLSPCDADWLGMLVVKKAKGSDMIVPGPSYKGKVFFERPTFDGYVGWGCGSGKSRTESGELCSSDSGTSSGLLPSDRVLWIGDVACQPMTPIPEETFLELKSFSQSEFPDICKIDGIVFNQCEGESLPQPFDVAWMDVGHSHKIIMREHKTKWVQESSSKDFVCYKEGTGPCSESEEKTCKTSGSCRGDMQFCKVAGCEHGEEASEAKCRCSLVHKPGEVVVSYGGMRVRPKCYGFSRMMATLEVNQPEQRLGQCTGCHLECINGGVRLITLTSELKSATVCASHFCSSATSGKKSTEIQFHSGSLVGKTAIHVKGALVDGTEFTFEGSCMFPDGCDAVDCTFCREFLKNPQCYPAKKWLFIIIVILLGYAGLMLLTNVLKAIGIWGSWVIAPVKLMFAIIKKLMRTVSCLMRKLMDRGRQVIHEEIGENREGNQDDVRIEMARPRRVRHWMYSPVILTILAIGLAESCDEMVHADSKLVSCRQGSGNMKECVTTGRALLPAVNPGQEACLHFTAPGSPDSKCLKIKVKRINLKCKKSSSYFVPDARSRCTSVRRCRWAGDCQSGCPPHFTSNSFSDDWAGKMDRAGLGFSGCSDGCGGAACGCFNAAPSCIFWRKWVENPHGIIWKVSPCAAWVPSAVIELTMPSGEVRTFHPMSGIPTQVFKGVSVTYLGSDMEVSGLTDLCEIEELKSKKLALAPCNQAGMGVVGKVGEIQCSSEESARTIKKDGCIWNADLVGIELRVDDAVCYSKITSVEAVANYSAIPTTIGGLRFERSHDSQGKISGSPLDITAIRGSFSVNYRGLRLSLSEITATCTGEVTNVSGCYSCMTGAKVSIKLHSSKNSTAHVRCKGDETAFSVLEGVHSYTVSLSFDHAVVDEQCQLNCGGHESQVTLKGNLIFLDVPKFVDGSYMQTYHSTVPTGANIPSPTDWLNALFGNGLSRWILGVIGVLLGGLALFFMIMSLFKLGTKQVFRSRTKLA

Chain of RVFV Gn (crystallization construct) (P21401 168-483): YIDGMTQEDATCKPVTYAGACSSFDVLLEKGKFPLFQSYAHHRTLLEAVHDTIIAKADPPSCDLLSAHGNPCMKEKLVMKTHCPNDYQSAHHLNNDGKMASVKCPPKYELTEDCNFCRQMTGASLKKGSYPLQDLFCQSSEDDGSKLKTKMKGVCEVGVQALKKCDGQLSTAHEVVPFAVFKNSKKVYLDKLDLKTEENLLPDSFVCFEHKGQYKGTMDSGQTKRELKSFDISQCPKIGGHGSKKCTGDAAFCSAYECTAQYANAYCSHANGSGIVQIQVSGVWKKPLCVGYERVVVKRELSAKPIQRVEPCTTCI

B1: Fab fragment of RV-Gn1 (Fab, V domains shown)
VH: TGSLEESGGRLVTPGTPLTLTCTVSGIDPNSDHMSWVRQAPGKGLEWIAIIYASGTTYYASWAKGRFTISKTSTTVDLRIASPTTEDTATYFCATYPNYPTDNLWGQGTLVTVSG
VL: TGMTQTPSPVSAAVGGTVTINCQASQSVYNNYLLSWYQQKPGQPPKRLIYSASTLASGVSSRFKGSGSGTQFTLTISDVQCDDAATYYCLGSYDGNSADCLAFGGGTEVVVK
notes: also called RV-Gn1 Fab; Fab RV-Gn1
With B1 the “stoichiometry N” value [1] was 1.

B2: RV-Gn1 (full-length rabbit IgG) (antibody, V domains shown)
VH: QSLEESGGRLVTPGTPLTLTCTVSGIDPNSDHMSWVRQAPGKGLEWIAIIYASGTTYYASWAKGRFTISKTSTTVDLRIASPTTEDTATYFCATYPNYPTDNLWGQGTLVTVSS
VL: TGMTQTPSPVSAAVGGTVTINCQASQSVYNNYLLSWYQQKPGQPPKRLIYSASTLASGVSSRFKGSGSGTQFTLTISDVQCDDAATYYCLGSYDGNSADCLAFGGGTEVVVK
notes: also called RVFV-Gn1; source: rabbit hybridoma supernatant, purified (Protein G)
B2: no binding (tested: 10μg/ml) [2].
